From US20170291939A1 (Novartis, published 2017)
Positions count from the first letter of the chain named. Read-outs that look alike come from different tables or passages of the source.

T1: recombinant mIL-17A (mouse, UniProt Q62386 26-158)
T1 sequence: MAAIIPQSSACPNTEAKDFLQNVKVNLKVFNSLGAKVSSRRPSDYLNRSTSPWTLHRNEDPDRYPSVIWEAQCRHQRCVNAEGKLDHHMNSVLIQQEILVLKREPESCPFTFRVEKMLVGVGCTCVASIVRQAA

T2: recombinant huIL-17F (human, UniProt Q96PD4 31-163)
T2 sequence: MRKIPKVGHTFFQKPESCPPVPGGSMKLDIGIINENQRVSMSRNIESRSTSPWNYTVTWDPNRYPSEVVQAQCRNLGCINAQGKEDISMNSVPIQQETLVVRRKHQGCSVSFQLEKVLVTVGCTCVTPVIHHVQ

T3: recombinant huIL-17A/F heterodimer (human, UniProt Q16552 24-155; Q96PD4 31-163, limits assumed)
T3 sequence (looked up) 1: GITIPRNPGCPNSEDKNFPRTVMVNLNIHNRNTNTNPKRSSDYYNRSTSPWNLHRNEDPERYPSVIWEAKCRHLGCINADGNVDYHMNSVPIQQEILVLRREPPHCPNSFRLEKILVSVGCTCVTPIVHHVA
T3 sequence (looked up) 2: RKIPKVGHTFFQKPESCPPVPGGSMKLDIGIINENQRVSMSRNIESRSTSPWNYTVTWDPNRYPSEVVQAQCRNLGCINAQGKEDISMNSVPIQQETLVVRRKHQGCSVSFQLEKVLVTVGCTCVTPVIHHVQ

T4: recombinant huIL-17A (SEQ ID NO: 76) (human, UniProt Q16552 24-155, limits assumed)
T4 sequence: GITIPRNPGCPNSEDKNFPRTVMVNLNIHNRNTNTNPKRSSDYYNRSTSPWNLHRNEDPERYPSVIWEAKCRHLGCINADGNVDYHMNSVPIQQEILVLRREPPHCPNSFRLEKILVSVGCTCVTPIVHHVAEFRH

T5: rat IL-17A (rat, UniProt Q61453 18-150)
T5 sequence: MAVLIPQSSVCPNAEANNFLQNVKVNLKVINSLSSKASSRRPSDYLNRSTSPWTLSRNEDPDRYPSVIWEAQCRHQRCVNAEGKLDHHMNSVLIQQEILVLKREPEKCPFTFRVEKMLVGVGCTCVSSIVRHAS

T6: recombinant mIL-17F (SEQ ID NO: 84) (mouse, UniProt Q7TNI7 29-161)
T6 sequence: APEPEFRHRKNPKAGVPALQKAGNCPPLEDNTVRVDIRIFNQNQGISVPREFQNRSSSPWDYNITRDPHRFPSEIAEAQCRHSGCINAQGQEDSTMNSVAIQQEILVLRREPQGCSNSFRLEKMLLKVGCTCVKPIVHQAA

T7: human IL-17A (construct not specified) (human, UniProt Q16552 24-155, limits assumed)
T7 sequence: T4 sequence

T8: recombinant mIL-17A/F (R&D Systems Cat#5390-IL) (mouse, UniProt Q62386 26-158; Q7TNI7 29-161, limits assumed)
T8 sequence (looked up) 1: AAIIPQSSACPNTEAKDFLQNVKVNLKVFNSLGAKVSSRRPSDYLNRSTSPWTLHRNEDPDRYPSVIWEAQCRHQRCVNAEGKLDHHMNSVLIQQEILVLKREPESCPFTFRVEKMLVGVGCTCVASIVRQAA
T8 sequence (looked up) 2: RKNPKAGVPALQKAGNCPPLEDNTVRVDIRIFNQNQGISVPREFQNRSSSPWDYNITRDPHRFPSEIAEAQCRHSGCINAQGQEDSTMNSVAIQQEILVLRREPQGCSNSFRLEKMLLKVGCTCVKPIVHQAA

T9: cynomolgus IL-17A (cynomolgus monkey, UniProt Q16552 24-155 (human entry), limits assumed)
T9 construct: also called cynoIL-17A; cyno IL-17A
T9 chain: T3 sequence (looked up) 1 with T3A, P8S, N34S, I77V, N78K, P104R

T10: recombinant huIL-20 (Novartis) (human) (UniProt Q9NYY1)
T10 sequence (looked up): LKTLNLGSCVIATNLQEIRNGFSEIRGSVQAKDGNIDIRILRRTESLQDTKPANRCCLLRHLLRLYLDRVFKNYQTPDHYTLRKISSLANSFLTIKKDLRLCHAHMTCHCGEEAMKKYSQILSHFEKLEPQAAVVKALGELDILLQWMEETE

B1: XAB4 (antibody, human IgG1, kappa, V domains shown)
VH: EVQLVESGGDLVQPGGSLRLSCAASGFTFSSYWMSWVRQAPGKGLEWVANIKQDGSEKYYVDSVKGRFTISRDNAKNSLYLQMNSLRAEDTAVYYCARDRGSLYYWGQGTLVTVSS
VL: AIQLTQSPSSLSASVGDRVTITCRPSQGINWELAWYQQKPGKAPKLLIYDASSLEQGVPSRFSGSGSGTDFTLTISSLQPEDFATYYCQQFNSYPLTFGGGTKVEIKR
B2: XAB2 (antibody, human IgG1, kappa, V domains shown)
VH: B1 VH
VL: B1 VL with G28V, N30I, W31S, E32A, G66V, N92D
notes: full IgG
B3: XAB1 (antibody, human IgG1, kappa, V domains shown)
VH: B1 VH
VL: B1 VL with N30I, W31S, E32A, Q56N

What was measured:
[1] = biological target: BSA (UniProt P02769); experiment: ELISA, BSA wells, control antibody 5 µg/ml (XAB4 set)
[2] = biological target: BSA (UniProt P02769); experiment: ELISA, BSA wells, control antibody 1 µg/ml (XAB1 set)
[3] = biological target: T1, recombinant mIL-17A; experiment: cell-based or functional assay
[4] = biological target: T2, recombinant huIL-17F; experiment: cell-based or functional assay
[5] = biological target: T3, recombinant huIL-17A/F heterodimer; experiment: cell-based or functional assay
[6] = biological target: T4, recombinant huIL-17A (SEQ ID NO: 76); experiment: cell-based or functional assay
[7] = biological target: recombinant mIL-17A/F (R&D Systems Cat#5390-IL) (mouse) (UniProt Q62386); experiment: cell-based or functional assay
[8] = biological target: T5, rat IL-17A; experiment: cell-based or functional assay
[9] = biological target: T6, recombinant mIL-17F (SEQ ID NO: 84); experiment: cell-based or functional assay
[10] = biological target: T4, recombinant huIL-17A (SEQ ID NO: 76); experiment: cell-based or functional assay; remark: listed apart in the source
[11] = biological target: T7, human IL-17A (construct not specified); experiment: cell-based or functional assay
[12] = biological target: T1, recombinant mIL-17A; experiment: cell-based or functional assay; remark: listed apart in the source
[13] = biological target: T8, recombinant mIL-17A/F (R&D Systems …); experiment: cell-based or functional assay
[14] = biological target: T4, recombinant huIL-17A (SEQ ID NO: 76); experiment: cell-based or functional assay; remark: listed apart in the source
[15] = biological target: T1, recombinant mIL-17A; experiment: cell-based or functional assay; remark: listed apart in the source
[16] = biological target: T2, recombinant huIL-17F; experiment: cell-based or functional assay; remark: listed apart in the source
[17] = biological target: T3, recombinant huIL-17A/F heterodimer; experiment: cell-based or functional assay; remark: listed apart in the source
[18] = biological target: T4, recombinant huIL-17A (SEQ ID NO: 76); experiment: cell-based or functional assay; remark: listed apart in the source
[19] = biological target: T2, recombinant huIL-17F; experiment: cell-based or functional assay; remark: listed apart in the source
[20] = biological target: T3, recombinant huIL-17A/F heterodimer; experiment: cell-based or functional assay; remark: listed apart in the source
[21] = biological target: T4, recombinant huIL-17A (SEQ ID NO: 76); experiment: cell-based or functional assay; remark: listed apart in the source
[22] = biological target: T5, rat IL-17A; experiment: affinity determination (Tables 18-21)
[23] = biological target: T9, cynomolgus IL-17A; experiment: affinity determination (Tables 18-21)
[24] = biological target: T10, recombinant huIL-20 (Novartis) (human); experiment: ELISA, coated cytokine, antibody 10 µg/ml

Chain of BSA (P02769 25-607 limits assumed): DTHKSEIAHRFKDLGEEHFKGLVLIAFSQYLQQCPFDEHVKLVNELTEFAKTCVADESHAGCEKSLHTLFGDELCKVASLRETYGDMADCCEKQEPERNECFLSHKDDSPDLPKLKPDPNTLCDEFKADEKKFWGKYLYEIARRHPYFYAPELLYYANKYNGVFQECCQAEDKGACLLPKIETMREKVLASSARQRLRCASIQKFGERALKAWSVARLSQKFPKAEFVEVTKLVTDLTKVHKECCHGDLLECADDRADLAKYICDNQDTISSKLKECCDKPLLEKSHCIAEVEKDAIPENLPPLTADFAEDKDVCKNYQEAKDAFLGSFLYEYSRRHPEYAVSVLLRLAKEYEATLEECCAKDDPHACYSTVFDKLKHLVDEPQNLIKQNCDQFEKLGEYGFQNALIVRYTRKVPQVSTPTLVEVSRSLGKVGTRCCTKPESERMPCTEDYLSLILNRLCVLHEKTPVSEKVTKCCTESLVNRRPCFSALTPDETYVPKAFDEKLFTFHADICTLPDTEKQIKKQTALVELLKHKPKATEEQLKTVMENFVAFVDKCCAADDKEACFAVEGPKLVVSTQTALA

Row | Molecule | IC50, mouse KC secretion by CMT-93 cells; rIL-17A (1 nM) [8] [nM] | IC50, mouse KC secretion by CMT-93 cells; mIL-17F (30 nM) [9] [µM] | IC50, huGROα secretion by BJ cells; rhuIL-17A (0.5 nM) [10] [nM] | EC50, T = 0 weeks [11] [ng/mL] | EC50, T = 4 weeks at pH 8, 40° C. (forced deamidation) [11] [ng/ml] | IC50, mouse KC secretion by CMT-93 cells; mIL-17A (1 nM) [12] [nM] | IC50, mouse KC secretion by CMT-93 cells; mIL-17A/F (3 nM) [13] [nM] | IC50, huIL-6 secretion by BJ cells; rhuIL-17A (0.5 nM) [14] [nM] | IC50, KC secretion by CMT-93 cells; mIL-17A (0.15 nM) [15] [nM] | IC50, hu-GRO-alpha secretion by BJ cells; IL-17F (10 nM) + TNF-α (6 pM) [16] [µM] | IC50, hu-GRO-alpha secretion by BJ cells; IL-17A/F (300 pM) + TNF-α (6 pM) [17] [nM] | IC50, hu-GRO-alpha secretion by BJ cells; IL-17A (30 pM) + TNF-α (6 pM) [18] | IC50, huIL-6 secretion by BJ cells; rhuIL-17F (10 nM) + rhuTNF-α (6 pM) [19] [µM] | IC50, huIL-6 secretion by BJ cells; rhuIL-17A/F (300 pM) + rhuTNF-α (6 pM) [20] [nM] | also measured
1 | Control antibody (BSA wells of Table 23; not identified) | – | – | – | – | – | – | – | – | – | – | – | – | – | – | O.D. [1]: 0.01 O.D.; O.D. [2]: 0.149 O.D.
2 | Simulect® (1.1% solution, Batch C0011; 831179) (antibody) | > 3000 | > 3 | – | – | – | – | – | – | – | – | – | – | – | – | IC50, mouse KC secretion by CMT-93 cells; mIL-17A (1 nM) [3]: > 3000 nM; IC50, hu-GRO-alpha secretion by BJ cells; IL-17F (10 nM) + TNF-α (6 pM) [4]: > 3 µM; IC50, hu-GRO-alpha secretion by BJ cells; IL-17F (30 nM) [4]: > 1000 nM; IC50, huIL-6 secretion by BJ cells; rhuIL-17F (10 nM) + rhuTNF-α (6 pM) [4]: > 3 µM; IC50, huIL-6 secretion by BJ cells; rhuIL-17F (30 nM) [4]: > 1000 nM; IC50, hu-GRO-alpha secretion by BJ cells; IL-17A/F (300 pM) + TNF-α (6 pM) [5]: > 3 µM; IC50, hu-GRO-alpha secretion by BJ cells; IL-17A/F (3 nM) [5]: > 100 nM; IC50, huIL-6 secretion by BJ cells; rhuIL-17A/F (300 pM) + rhuTNF-α (6 pM) [5]: > 3 µM; IC50, huIL-6 secretion by BJ cells; rhuIL-17A/F (3 nM) [5]: > 100 nM; IC50, hu-GRO-alpha secretion by BJ cells; IL-17A (30 pM) + TNF-α (6 pM) [6]: > 3 µM; IC50, hu-GRO-alpha secretion by BJ cells; IL-17A (1 nM) [6]: > 100 nM; IC50, huIL-6 secretion by BJ cells; rhuIL-17A (30 pM) + rhuTNF-α (6 pM) [6]: > 3 µM; IC50, huIL-6 secretion by BJ cells; rhuIL-17A (1 nM) [6]: > 100 nM; IC50, mouse KC secretion by CMT-93 cells; mIL-17A/F (3 nM) [7]: > 3000 nM
3 | B1 | 6.7 | > 10 | 0.44 | 48 | 47 | 13.8 | 10.3 | 0.55 | 7 | > 3 | 0.1 | 7 pM | > 3 | 0.17 | IC50, hu-GRO-alpha secretion by BJ cells; IL-17F (30 nM) [16]: > 3000 nM; IC50, hu-GRO-alpha secretion by BJ cells; IL-17A/F (3 nM) [17]: 1.11 nM; IC50, hu-GRO-alpha secretion by BJ cells; IL-17A (1 nM) [18]: 0.35 nM; IC50, huIL-6 secretion by BJ cells; rhuIL-17F (30 nM) [19]: > 3000 nM; IC50, huIL-6 secretion by BJ cells; rhuIL-17A/F (3 nM) [20]: 1.68 nM; IC50, huIL-6 secretion by BJ cells; rhuIL-17A (1 nM) [21]: 0.63 nM
4 | B2 | – | – | 0.4 | 45 | 47 | – | – | 0.64 | 20.9 | – | – | – | – | – | binding result [22]: binds; binding result [23]: binds
5 | B3 | 467 | > 10 | 1.39 | – | – | 539 | > 1000 | 4.97 | 128 | > 3 | 6.22 | 0.72 nM | > 3 | 3.83 | O.D. [24]: 0.335 O.D.; IC50, huIL-6 secretion by BJ cells; rhuIL-17A (30 pM) + rhuTNF-α (6 pM) [21]: 0.47 nM
